The supplement of paper PMC9170038

Experiments:
MS2 coat protein [1] = assay: apparent KD of MS2 coat protein, switch ON state; designed switch direction (-1 OFF switch, 1 ON switch): -1; higher = weaker reporter binding; details: FMN input: 0 or 200 uM; Eterna round: R93 (includes R88 designs)
Outline: (§1)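 Illumina sequencing clusters served as templates for on-chip transcription of the designed RNA switches. SNAP-549-labelled MS2 coat protein was then titrated in twofold steps from 0.7 or 1.5 nM to 3 µM, allowing 0.8–1.5 h per step at first and 10–20 min per step later. The buffer held 100 mM Tris-HCl pH 7.5, 80 mM KCl and 4 mM MgCl2, without or with constant ligand. Apparent KD is the median per design of normalised cluster binding-curve fits.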

MS2 coat protein [2] = assay: apparent KD of MS2 coat protein, switch OFF state (with FMN for OFF switches, without FMN for ON switches); designed switch direction (-1 OFF switch, 1 ON switch): -1; higher = weaker reporter binding; details: FMN input: 0 or 200 uM; Eterna round: R93 (includes R88 designs)
Outline: as §1

MS2 coat protein [3] = assay: apparent KD of MS2 coat protein; designed switch direction (-1 OFF switch, 1 ON switch): 1; higher = weaker reporter binding
Outline: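 Each step of the titration lasted 0.8–1.5 h at the lowest concentration and 10–20 min at the highest. The protein, SNAP-549-labelled MS2 coat protein, went from 0.7 or 1.5 nM doubling to 3 µM over RNA switches transcribed on Illumina chips by stalled E. coli RNA polymerase. Normalised cluster fluorescence was curve-fitted, and the per-design median over clusters is given as apparent KD.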

[4] = Eterna round: R95, input ligand: FMN 200 uM
[5] = Eterna round: R95, input ligand: microRNA oligo, concentration not stated
[6] = Eterna round: R95, input ligand: none
[7] = input ligand: microRNA oligo, concentration not stated

Row | Sequence | apparent KD of MS2 coat protein (MS2 coat protein [1]) | apparent KD of MS2 coat protein (MS2 coat protein [2]) | apparent KD of MS2 coat protein (MS2 coat protein [3]; [4]) | apparent KD of MS2 coat protein (MS2 coat protein [3]; [5]) | apparent KD of MS2 coat protein (MS2 coat protein [3]; [6]) | apparent KD of MS2 coat protein (MS2 coat protein [3]; input ligand: FMN 200 uM) | apparent KD of MS2 coat protein (MS2 coat protein [3]; [7]) | apparent KD of MS2 coat protein (MS2 coat protein [3]; input ligand: none)
1 | GAAUGAUGAGGAUAUACAUGAGGAUCACCCAUGUGUAAAAAUAAAUACACAAAAGAAAGUAGAAGGCAUCAAAG [Mat - Exclusion 3 - Mayanna mod - D120] | 22.9 nM | 99 nM |  |  |  |  |  | 
2 | AAAUGUUGAGGAUAUACAUGAGGAUCACCCAUGUGUAAAAAUAAAUACACAAAAGAAAGUAGAAGGCAACAAAA [Ex 3 May 11] | 28.7 nM | 79.7 nM |  |  |  |  |  | 
3 | GGGUCACAUGAGGAUCACCCAUGUAAGGAUAUGCUAGGGAUGGAAACCAUUCCGCAACGCAGAAGGUACUAAAG [Janelle Amethyst 18 Mod 12 - Jieux - Exclusion 1] | 50.4 nM | 105 nM |  |  |  |  |  | 
4 | AUAACCCGUGCUAAGGAUAUGCGUACUCCUACAUGAGGAUCACCCAUGUCCCGCCGAAAAGGAAGGCAGAAGGUAGCACGGGCCG [Lasoleri] (puzzle: Same State 2) |  |  | 45.7 nM | 84.9 nM | 126 nM |  |  | 
5 | GGUCCAGCCUGAGCUGGACAAAAGCAUGUACAUGAGGAUCACCCAUGUCAUGUACAAGCUUUUUGCUCGUCUAAAUG [Mat - hsa-mir-208a - 93] (puzzle: Sensor for hsa-mir-208a) |  |  | 802 nM | 21.7 nM | 758 nM |  |  | 
6 | CUUUUUAAUGCAGGAUAUGAUCAACAUGAGGAUCACCCAUGUGGCGUUGUGAGUAGGGAGAGUGAUCAGAAGGGCGUCUCCUCG [SS-NG2-LRO09] (Eterna round: R96, puzzle: Same State NG 2) |  |  |  |  |  | 43.9 nM | 38 nM | 56.6 nM
7 | GAGCCAGUCCGAGGAUAUUCAUAUUAACACAUGAGGAUCACCCAUGUAGGCUCAGAAGAGCCCUGGGAGAAGGCGGACUGGCUC [SS-NG2-LRO15] (Eterna round: R96, puzzle: Same State NG 2) |  |  |  |  |  | 85.5 nM | 455 nM | 1100 nM
8 | UUGCGGGCUUGAGGAUAUUGAGUACAUAUGUUUAACAUGAGGAUCACCCAUGUGGGUUGCGGUAUCGAGAAGGUAACUUACUAC [salish99_SSNG2_r04_807] (Eterna round: R96, puzzle: Same State NG 2) |  |  |  |  |  | 110 nM | 70.4 nM | 97.2 nM
9 | GGUCCAGCCUGAGCUGGACAAAAGCAUGUACAUGAGGAUCACCCAUGUCAUGUACAAGCUUUUUGUUCGUCUUAAAA [JL mod - D87 - 13] (puzzle: Sensor for hsa-mir-208a) |  |  | 420 nM | 15.6 nM | 344 nM |  |  | 
10 | AACUAUCUAUCUGAGGAUAUCAUGAAAUAAACAUGAGGAUCACCCAUGUGCAGGAAAACUGCAUAUGAGAAGGCAGAUAGAUUGA [salish99_ss2_r3_021] (puzzle: Same State 2) |  |  | 66.6 nM | 1250 nM | 2000 nM |  |  | 
11 | GAAAAACAUGAGGAUCACCCAUGUGAGAAUAUGGGAGGAUAUUCAAAGACGAAAGUCAAAGAAGAAGGCCUAAAAG [Mat - Same State 1 - Eli mod - 37] (Eterna round: R96, puzzle: Same State 1) |  |  |  |  |  | 33.4 nM | 143 nM | 211 nM
12 | GCCAACACAUGAGGAUAUGGCACCUUAUUGGUGCCAGAAGGCAUGUGAAUUCACAUGAGGAUCACCCAUGUAUUAUAGUUGGCA [Fiskers NG1ss - 19] (Eterna round: R96, puzzle: Same State NG 1) |  |  |  |  |  | 18.8 nM | 75.1 nM | 121 nM
13 | GUACGUGCAACGUAGGAUAUCCACGACACGACAUGAGGAUCACCCAUGUCAAGGCUUAAAAGUCGGGAGAAGGGCGAACCACGGA [Xereenge] (puzzle: Same State 2) |  |  | 14.5 nM | 15.9 nM | 19.2 nM |  |  | 
14 | ACAUGAGAGGGAGGAUAUUUUGUACCUACAUGUGACAUGAGGAUCACCCAUGUGGUAAGUAUGAGAAAGAAGGCCCAGAUAUGU [Equivalence 18 - Jieux - Same State NG 2] (Eterna round: R96, puzzle: Same State NG 2) |  |  |  |  |  | 17.4 nM | 18.9 nM | 27.4 nM
15 | CCGUCGGAGGUAGGAUAUGGAGCCUUAUUGGCUCCAGAAGGAUCAAAUAAAUUAACAAACAUGAGGAUCACCCAUGUCCGACGG [Eli NG1ss - 86] (Eterna round: R96, puzzle: Same State NG 1) |  |  |  |  |  | 156 nM | 331 nM | 558 nM
16 | CUAAACAGAGGAGGAUAUGCAGAGGAUCACCCUGUAGAAGGCCACAGAGGAGGAUAUGCAGAGGAUCACCCUGUAGAAGGCCAC [pwkr ssNG DX.7] (Eterna round: R96, puzzle: Same State NG 1) |  |  |  |  |  | 121 nM | 210 nM | 222 nM
17 | GGUAAACAUGAGGAUCACCCAUGUAAUAAUAUGGGAGGAUAUGGGAAUUAAUUAAUUAAACCAGAAGGCCUAAUGU [Mat - Same State 1 - D87] (puzzle: Same State 1) |  |  | 53.1 nM | 536 nM | 519 nM |  |  | 
18 | UGGCUCAGAGCAGGAUAUAUGUGGUCACAUGAGGAUCACCCAUGUCUCGAGCUUCGGCUCGAGGCAUAGAAGGGCUCUGAGCCA [SSNG2/5-B2] (Eterna round: R96, puzzle: Same State NG 2) |  |  |  |  |  | 550 nM | 48 nM | 58.1 nM
19 | AGAUCAUGACGAGGAUAUGGUACAUGAGGAUCACCCAUGUAUGUACCAUAACGCGUACGACGAAACCAGAAGGCGUCGUGGUCA [JL SSNG2 1.08] (Eterna round: R96, puzzle: Same State NG 2) |  |  |  |  |  | 11.7 nM | 14.8 nM | 27 nM
20 | AGCUAGUACCGAGGAUAUACGUACAUGAGGAUCACCCAUGUAUACAUGAUUUAAUGAGACUACAUGUAGAAGGCGGUACUAGCA [JL SSNG2 1.24] (Eterna round: R96, puzzle: Same State NG 2) |  |  |  |  |  | 12.4 nM | 39 nM | 53.7 nM
21 | GGAGCCGGCCUAGGAUAUUUCAUCAAAAAACAUGAGGAUCACCCAUGUAGGCCAGAAGGCCUUGGGAAGAAGGAGGUCGGCUCC [Loop Effect - C24] (Eterna round: R96, puzzle: Same State NG 2) |  |  |  |  |  | 10.2 nM | 14.6 nM | 19 nM
22 | AAGAAUCUAUCUCAGGAUAUCAUGUCAAAGACAUGAGGAUCACCCAUGUACCAGGAAACUGGUUAUGAGAAGGGAGAUAGAUUCA [Mat - Same State 2 - Mod - D31] (puzzle: Same State 2) |  |  | 98.6 nM | 118 nM | 79.6 nM |  |  | 
23 | AAUUUAAUACAUGAGGAUCACCCAUGUAAAUUAAUUAAGAUCAAGGAUAUCAGCUCGAAUAGAGCUGAGAAGGUGAUCACAUGU [SSNG3/19-A1] (Eterna round: R96, puzzle: Same State NG 3) |  |  |  |  |  |  | 244 nM | 
24 | GGCGUCUGUCAAGGAUAUGCUACCGUUUCGGUAGCAGAAGGUGAUCACAUGAGGAUCACCCAUGUUUAGGCCAACAGGCCCGCC (Eterna round: R96, puzzle: Same State NG 1) |  |  |  |  |  | 1270 nM | 222 nM | 1410 nM
25 | AACAAACAUGAGGAUCACCCAUGUACAGACCUGGACAUUGUCGAGGAUAUCAGCAAGAAAACAGCUGAGAAGGUGACGCCAGAG [Eternabot solution 6] (Eterna round: R96, puzzle: Same State NG 3) |  |  |  |  |  | 30.8 nM | 52.2 nM | 70.3 nM
26 | GUUACAUGAGGAUCACCCAUGUAUGUGUGGGAGUAAGUGUCUUAGGAUAUCUGUUAUUUUAUUUAAGAGAAGGAAGAUUGUUGU [JMF's solution 39] (Eterna round: R96, puzzle: Same State NG 3) |  |  |  |  |  | 133 nM | 68.9 nM | 80.7 nM
27 | GUGCGGGUGCCACAGGAUAUACGUGGAUCGACAUGAGGAUCACCCAUGUAUAUCCUAAUAAUUGCGUAGAAGGGUGGUCAGCCGU [Enbebiqu] (Eterna round: R96, puzzle: Same State 2) |  |  |  |  |  | 144 nM | 196 nM | 
28 | GGAGCCGGCACCGAGGAUAUUCAUAUUAAAACAUGAGGAUCACCCAUGUACGCCAGAAGGCGUUGGGAGAAGGCGGAUCGGCUCG [Xeonanis - 22] (puzzle: Same State 2) |  |  | 57.6 nM | 79.9 nM | 362 nM |  |  | 
29 | GAGAGACAUGAGGAUCACCCAUGUAGGAGAAGACAAGGAUAUGUAGGAGAAGGAGAAGGAACAGAAGGUGUGGGAG [JR_SS1_Sub051] (puzzle: Same State 1) |  |  | 57.9 nM | 96.6 nM | 109 nM |  |  | 
30 | AUAUAACAUGAGGAUCACCCAUGUCUCUAAAGUCGAGGAUAUGGGCAGGUUAUAUCCGAACCAGAAGGCGAAUUAU [SS1 Teenbexe 5] (puzzle: Same State 1) |  |  | 56.3 nM | 239 nM | 322 nM |  |  | 
